Measurements published in publication PMC10981688 (2024).

Molecular target: recombinant human PCSK9 with 6x His tag (proprotein convertase subtilisin/kexin type-9) (human, UniProt Q8NBP7 31-692)
Test: BLI

B1: recombinant human CAP1 (adenylyl cyclase-associated protein 1) (natural protein)
chain: MADMQNLVERLERAVGRLEAVSHTSDMHRGYADSPSKAGAAPYVQAFDSLLAGPVAEYLKISKEIGGDVQKHAEMVHTGLKLERALLVTASQCQQPAENKLSDLLAPISEQIKEVITFREKNRGSKLFNHLSAVSESIQALGWVAMAPKPGPYVKEMNDAAMFYTNRVLKEYKDVDKKHVDWVKAYLSIWTELQAYIKEFHTTGLAWSKTGPVAKELSGLPSGPSAGSCPPPPPPCPPPPPVSTISCSYESASRSSLFAQINQGESITHALKHVSDDMKTHKNPALKAQSGPVRSGPKPFSAPKPQTSPSPKRATKKEPAVLELEGKKWRVENQENVSNLVIEDTELKQVAYIYKCVNTTLQIKGKINSITVDNCKKLGLVFDDVVGIVEIINSKDVKVQVMGKVPTISINKTDGCHAYLSKNSLDCEIVSAKSSEMNVLIPTEGGDFNEFPVPEQFKTLWNGQKLVTTVTEIAG
koff: 0.00132 s⁻¹
